For data set [1], the target named is ZFN pair Astr 28ABC + Astr 28FED (synthetic construct, UniProt P14870;P14870 384-579;384-579). Description: Zn; U2OS eGFP disruption, 3 days after nucleofection. Conditions: tags: N-terminal 3xFLAG and SV40 NLS (kept in the assay, left out here); copies: 1;1.
In data set [2] the target is ZFN pair Astr 30ABC + Astr 30FED (synthetic construct, UniProt P14870;P14870 384-579;384-579). The data set is described as above. Conditions: tags: N-terminal 3xFLAG and SV40 NLS (kept in the assay, left out here); copies: 1;1.
For data set [3], the target named is ZFN pair Astr 2ABC + Astr 2FED (synthetic construct, UniProt P14870;P14870 384-579;384-579). The description is as above. Conditions: tags: N-terminal 3xFLAG and SV40 NLS (kept in the assay, left out here); copies: 1;1.
The target in data set [4] is ZFN pair Astr 26ABC + Astr 26FED (synthetic construct, UniProt P14870;P14870 384-579;384-579). Described as above. Conditions: tags: N-terminal 3xFLAG and SV40 NLS (kept in the assay, left out here); copies: 1;1.
Data set [5] concerns the target ZFN pair Astr 31ABC + Astr 31FED (synthetic construct, UniProt P14870;P14870 384-579;384-579). The description is as above. Conditions: tags: N-terminal 3xFLAG and SV40 NLS (kept in the assay, left out here); copies: 1;1.
Data set [6] deals with ZFN pair Astr 27ABC + Astr 27FED (synthetic construct, UniProt P14870;P14870 384-579;384-579). The data set is described as above. The following applies: tags: N-terminal 3xFLAG and SV40 NLS (kept in the assay, left out here); copies: 1;1.
In data set [7] the target is ZFN pair Astr 20ABC + Astr 20FED (synthetic construct, UniProt P14870;P14870 384-579;384-579). Described as above. The following applies: tags: N-terminal 3xFLAG and SV40 NLS (kept in the assay, left out here); copies: 1;1.
The target in data set [8] is T1, KLF6 reprogrammed with array Tet1 For (synthetic construct, UniProt Q99612 1-199).
T1 chain: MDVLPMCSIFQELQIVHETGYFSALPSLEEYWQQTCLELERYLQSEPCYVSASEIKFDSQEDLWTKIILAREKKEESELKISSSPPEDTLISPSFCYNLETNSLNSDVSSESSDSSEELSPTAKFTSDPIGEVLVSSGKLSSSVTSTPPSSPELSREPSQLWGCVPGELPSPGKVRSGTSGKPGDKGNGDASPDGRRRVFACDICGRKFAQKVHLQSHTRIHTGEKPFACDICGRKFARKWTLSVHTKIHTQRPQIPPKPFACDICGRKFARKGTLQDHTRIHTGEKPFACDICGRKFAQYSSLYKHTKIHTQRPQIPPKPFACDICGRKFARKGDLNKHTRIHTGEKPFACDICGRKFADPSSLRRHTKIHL
Put plainly: Zn; HEK293T, 7x tetO minimal CMV GFP reporter.

The target of data set [9] is T2, KLF6 reprogrammed with array Tet2 For (synthetic construct, UniProt Q99612 1-199).
T2 chain: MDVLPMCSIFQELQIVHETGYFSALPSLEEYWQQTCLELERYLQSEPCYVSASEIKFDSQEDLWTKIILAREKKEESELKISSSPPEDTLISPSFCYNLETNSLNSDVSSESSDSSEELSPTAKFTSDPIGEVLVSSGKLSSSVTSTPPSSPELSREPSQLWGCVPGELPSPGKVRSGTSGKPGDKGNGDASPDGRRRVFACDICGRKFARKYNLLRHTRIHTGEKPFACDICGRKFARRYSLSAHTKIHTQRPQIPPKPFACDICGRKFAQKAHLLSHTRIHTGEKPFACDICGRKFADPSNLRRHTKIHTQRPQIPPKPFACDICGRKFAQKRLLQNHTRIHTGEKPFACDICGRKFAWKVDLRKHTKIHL
Put plainly: Zn; HEK293T, 7x tetO minimal CMV GFP reporter.

Data set [10] has as its target ZIM3 reprogrammed with array Tet2 For (synthetic construct, UniProt Q96PE6 1-166). Put plainly: Zn; HEK293T, 7x tetO CMV eGFP reporter.
Data set [11] has as its target ZIM3 reprogrammed with array Tet1 For (synthetic construct, UniProt Q96PE6 1-166). Put plainly: Zn; HEK293T, 7x tetO CMV eGFP reporter.
Data set [12] concerns the target ZFN pair Astr 29ABC + Astr 29FED (synthetic construct, UniProt P14870;P14870 384-579;384-579). Put plainly: Zn; U2OS eGFP disruption, 3 days after nucleofection. The following applies: tags: N-terminal 3xFLAG and SV40 NLS (kept in the assay, left out here); copies: 1;1.
The target of data set [13] is ZFN pair Astr 22ABC + Astr 22FED (synthetic construct, UniProt P14870;P14870 384-579;384-579). The description is as above. Conditions: tags: N-terminal 3xFLAG and SV40 NLS (kept in the assay, left out here); copies: 1;1.
The target in data set [14] is ZFN pair Astr 24ABC + Astr 24FED (synthetic construct, UniProt P14870;P14870 384-579;384-579). The data set is described as above. The following applies: tags: N-terminal 3xFLAG and SV40 NLS (kept in the assay, left out here); copies: 1;1.
In data set [15] the target is ZFN pair Astr 18ABC + Astr 18FED (synthetic construct, UniProt P14870;P14870 384-579;384-579). Described as above. The following applies: tags: N-terminal 3xFLAG and SV40 NLS (kept in the assay, left out here); copies: 1;1.
Data set [16] deals with ZFN pair Astr 1ABC + Astr 1FED (synthetic construct, UniProt P14870;P14870 384-579;384-579). The description is as above. Conditions: tags: N-terminal 3xFLAG and SV40 NLS (kept in the assay, left out here); copies: 1;1.
In data set [17] the target is ZFN pair Astr 25ABC + Astr 25FED (synthetic construct, UniProt P14870;P14870 384-579;384-579). The data set is described as above. The following applies: tags: N-terminal 3xFLAG and SV40 NLS (kept in the assay, left out here); copies: 1;1.
Data set [18] deals with ZFN pair Astr 12ABC + Astr 12FED (synthetic construct, UniProt P14870;P14870 384-579;384-579). The data set is described as above. The following applies: tags: N-terminal 3xFLAG and SV40 NLS (kept in the assay, left out here); copies: 1;1.
In data set [19] the target is ZFN pair Astr 10ABC + Astr 10FED (synthetic construct, UniProt P14870;P14870 384-579;384-579). The data set is described as above. Conditions: tags: N-terminal 3xFLAG and SV40 NLS (kept in the assay, left out here); copies: 1;1.
The target in data set [20] is ZFN pair Astr 23ABC + Astr 23FED (synthetic construct, UniProt P14870;P14870 384-579;384-579). The data set is described as above. Conditions: tags: N-terminal 3xFLAG and SV40 NLS (kept in the assay, left out here); copies: 1;1.

17 molecules from article PMC10421740, “A universal deep-learning model for zinc finger design enables transcription factor reprogramming” can be followed below.

Chain of ZFN pair Astr 25ABC + Astr 25FED (P14870 other isoform, or with tags, fused parts or gaps, chain 1 of 2): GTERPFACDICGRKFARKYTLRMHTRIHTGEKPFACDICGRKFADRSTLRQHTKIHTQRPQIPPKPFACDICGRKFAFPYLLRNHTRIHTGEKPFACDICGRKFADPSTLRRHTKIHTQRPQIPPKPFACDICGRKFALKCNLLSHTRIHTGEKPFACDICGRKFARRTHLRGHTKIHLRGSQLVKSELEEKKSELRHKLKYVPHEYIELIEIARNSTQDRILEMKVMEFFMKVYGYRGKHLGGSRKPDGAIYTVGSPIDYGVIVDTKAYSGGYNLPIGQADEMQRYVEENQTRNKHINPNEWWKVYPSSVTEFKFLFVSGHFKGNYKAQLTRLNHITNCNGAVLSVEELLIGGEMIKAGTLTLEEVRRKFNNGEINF
Chain of ZFN pair Astr 25ABC + Astr 25FED (P14870 other isoform, or with tags, fused parts or gaps, chain 2 of 2): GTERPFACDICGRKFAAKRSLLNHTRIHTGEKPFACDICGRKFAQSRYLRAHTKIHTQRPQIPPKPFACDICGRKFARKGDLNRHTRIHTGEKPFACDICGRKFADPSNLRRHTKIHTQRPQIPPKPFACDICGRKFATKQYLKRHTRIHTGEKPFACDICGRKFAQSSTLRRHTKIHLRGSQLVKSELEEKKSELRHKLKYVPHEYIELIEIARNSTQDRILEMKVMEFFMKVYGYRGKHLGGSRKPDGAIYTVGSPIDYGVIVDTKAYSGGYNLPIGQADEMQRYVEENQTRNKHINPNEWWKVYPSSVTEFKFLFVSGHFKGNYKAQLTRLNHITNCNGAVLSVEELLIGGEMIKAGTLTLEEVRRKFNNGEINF
Chain of ZFN pair Astr 12ABC + Astr 12FED (P14870 other isoform, or with tags, fused parts or gaps, chain 1 of 2): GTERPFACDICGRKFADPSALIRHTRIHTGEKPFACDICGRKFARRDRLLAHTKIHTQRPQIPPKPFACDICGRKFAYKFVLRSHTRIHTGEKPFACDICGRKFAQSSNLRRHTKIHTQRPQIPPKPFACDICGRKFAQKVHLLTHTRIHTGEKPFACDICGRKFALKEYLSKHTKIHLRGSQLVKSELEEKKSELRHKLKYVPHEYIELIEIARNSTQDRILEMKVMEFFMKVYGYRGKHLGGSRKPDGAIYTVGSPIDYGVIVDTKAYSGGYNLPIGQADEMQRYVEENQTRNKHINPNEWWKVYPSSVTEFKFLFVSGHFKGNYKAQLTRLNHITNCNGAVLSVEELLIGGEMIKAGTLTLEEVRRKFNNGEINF
Chain of ZFN pair Astr 12ABC + Astr 12FED (P14870 other isoform, or with tags, fused parts or gaps, chain 2 of 2): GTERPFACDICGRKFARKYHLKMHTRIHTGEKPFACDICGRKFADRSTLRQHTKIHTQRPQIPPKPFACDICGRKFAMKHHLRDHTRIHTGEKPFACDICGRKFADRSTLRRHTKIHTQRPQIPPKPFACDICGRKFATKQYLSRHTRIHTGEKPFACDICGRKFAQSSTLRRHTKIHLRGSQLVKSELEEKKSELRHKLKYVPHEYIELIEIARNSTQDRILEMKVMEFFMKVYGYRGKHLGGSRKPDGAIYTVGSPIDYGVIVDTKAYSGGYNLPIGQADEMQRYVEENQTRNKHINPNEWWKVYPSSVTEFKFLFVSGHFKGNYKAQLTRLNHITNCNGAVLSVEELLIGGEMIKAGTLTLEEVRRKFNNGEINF
Chain of ZFN pair Astr 26ABC + Astr 26FED (P14870 other isoform, or with tags, fused parts or gaps, chain 1 of 2): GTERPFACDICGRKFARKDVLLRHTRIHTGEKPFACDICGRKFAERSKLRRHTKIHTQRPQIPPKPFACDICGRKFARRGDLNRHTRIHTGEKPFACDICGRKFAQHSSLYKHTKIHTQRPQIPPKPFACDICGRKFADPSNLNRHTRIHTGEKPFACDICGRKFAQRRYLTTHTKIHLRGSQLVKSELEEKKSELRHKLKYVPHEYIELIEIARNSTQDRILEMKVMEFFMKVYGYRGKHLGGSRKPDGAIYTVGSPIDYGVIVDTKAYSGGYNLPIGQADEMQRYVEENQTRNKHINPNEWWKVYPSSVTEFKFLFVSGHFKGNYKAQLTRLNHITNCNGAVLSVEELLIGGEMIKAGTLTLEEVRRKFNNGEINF
Chain of ZFN pair Astr 26ABC + Astr 26FED (P14870 other isoform, or with tags, fused parts or gaps, chain 2 of 2): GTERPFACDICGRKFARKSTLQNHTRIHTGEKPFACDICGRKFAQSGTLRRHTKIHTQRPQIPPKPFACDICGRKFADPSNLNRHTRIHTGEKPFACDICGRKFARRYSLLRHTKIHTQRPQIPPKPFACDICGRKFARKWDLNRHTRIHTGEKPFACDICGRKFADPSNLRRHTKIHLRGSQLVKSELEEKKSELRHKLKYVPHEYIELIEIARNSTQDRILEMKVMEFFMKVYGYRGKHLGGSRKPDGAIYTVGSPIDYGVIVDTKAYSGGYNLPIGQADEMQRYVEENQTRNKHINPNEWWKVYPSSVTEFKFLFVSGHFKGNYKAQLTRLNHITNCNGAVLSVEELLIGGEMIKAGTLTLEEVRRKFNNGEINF
Chain of ZFN pair Astr 2ABC + Astr 2FED (P14870 other isoform, or with tags, fused parts or gaps, chain 1 of 2): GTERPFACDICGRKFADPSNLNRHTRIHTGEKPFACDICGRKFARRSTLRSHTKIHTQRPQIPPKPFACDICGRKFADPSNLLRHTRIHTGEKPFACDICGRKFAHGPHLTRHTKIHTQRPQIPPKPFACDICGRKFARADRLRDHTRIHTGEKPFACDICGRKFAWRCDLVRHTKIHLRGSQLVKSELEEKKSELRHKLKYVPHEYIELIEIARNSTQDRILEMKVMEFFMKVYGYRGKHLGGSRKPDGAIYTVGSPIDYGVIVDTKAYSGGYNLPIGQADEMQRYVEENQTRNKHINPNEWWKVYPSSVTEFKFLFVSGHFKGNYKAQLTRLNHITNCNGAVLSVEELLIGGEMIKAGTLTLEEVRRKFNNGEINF
Chain of ZFN pair Astr 2ABC + Astr 2FED (P14870 other isoform, or with tags, fused parts or gaps, chain 2 of 2): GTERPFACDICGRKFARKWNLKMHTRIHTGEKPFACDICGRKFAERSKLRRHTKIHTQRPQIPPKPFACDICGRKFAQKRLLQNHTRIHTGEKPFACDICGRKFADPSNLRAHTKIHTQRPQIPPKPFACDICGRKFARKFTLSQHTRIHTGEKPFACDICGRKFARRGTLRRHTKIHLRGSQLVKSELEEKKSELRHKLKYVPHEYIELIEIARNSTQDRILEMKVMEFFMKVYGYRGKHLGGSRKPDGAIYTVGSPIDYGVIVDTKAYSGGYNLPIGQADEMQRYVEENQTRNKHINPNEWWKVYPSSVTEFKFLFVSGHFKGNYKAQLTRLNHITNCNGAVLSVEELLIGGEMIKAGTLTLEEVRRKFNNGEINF
Chain of ZFN pair Astr 27ABC + Astr 27FED (P14870 other isoform, or with tags, fused parts or gaps, chain 1 of 2): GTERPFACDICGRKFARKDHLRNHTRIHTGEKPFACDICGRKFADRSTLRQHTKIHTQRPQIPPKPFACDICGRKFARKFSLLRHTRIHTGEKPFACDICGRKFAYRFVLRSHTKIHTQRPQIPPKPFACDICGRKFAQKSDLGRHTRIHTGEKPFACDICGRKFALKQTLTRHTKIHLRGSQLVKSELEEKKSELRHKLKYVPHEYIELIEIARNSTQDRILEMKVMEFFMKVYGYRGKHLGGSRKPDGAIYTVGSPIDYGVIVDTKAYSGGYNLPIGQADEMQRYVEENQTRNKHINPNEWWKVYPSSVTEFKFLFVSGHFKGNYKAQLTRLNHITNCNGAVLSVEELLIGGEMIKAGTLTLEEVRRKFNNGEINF
Chain of ZFN pair Astr 27ABC + Astr 27FED (P14870 other isoform, or with tags, fused parts or gaps, chain 2 of 2): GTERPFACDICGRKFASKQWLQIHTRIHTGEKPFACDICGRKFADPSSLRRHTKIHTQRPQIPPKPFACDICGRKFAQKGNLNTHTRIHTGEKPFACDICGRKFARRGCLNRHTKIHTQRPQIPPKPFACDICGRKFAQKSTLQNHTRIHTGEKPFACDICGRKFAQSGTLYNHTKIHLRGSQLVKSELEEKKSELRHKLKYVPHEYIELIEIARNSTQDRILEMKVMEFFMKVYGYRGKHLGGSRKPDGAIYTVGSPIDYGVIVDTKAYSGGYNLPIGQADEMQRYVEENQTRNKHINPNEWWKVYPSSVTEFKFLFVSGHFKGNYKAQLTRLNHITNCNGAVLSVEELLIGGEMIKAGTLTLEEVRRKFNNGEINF
Chain of ZFN pair Astr 24ABC + Astr 24FED (P14870 other isoform, or with tags, fused parts or gaps, chain 1 of 2): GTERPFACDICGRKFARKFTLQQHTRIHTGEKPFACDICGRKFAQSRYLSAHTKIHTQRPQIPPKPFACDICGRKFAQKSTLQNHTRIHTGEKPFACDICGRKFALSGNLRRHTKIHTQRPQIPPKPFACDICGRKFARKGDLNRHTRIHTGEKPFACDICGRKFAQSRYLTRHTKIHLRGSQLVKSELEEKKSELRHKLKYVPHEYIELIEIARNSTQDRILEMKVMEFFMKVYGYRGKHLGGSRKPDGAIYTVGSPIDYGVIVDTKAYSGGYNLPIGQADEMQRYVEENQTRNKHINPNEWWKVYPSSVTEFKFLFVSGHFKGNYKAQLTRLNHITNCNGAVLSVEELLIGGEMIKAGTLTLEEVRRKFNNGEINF
Chain of ZFN pair Astr 24ABC + Astr 24FED (P14870 other isoform, or with tags, fused parts or gaps, chain 2 of 2): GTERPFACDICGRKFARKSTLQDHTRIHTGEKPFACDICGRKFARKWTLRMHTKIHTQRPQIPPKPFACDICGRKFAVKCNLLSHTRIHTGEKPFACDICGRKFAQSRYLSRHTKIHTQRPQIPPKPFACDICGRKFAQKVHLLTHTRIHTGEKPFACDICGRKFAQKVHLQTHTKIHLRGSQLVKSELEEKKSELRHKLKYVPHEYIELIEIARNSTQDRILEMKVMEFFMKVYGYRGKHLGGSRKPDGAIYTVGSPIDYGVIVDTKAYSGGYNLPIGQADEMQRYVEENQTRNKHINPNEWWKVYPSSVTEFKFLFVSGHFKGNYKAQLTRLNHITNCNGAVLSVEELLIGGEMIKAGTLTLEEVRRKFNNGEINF
Chain of ZIM3 reprogrammed with array Tet2 For (Q96PE6 other isoform, or with tags, fused parts or gaps): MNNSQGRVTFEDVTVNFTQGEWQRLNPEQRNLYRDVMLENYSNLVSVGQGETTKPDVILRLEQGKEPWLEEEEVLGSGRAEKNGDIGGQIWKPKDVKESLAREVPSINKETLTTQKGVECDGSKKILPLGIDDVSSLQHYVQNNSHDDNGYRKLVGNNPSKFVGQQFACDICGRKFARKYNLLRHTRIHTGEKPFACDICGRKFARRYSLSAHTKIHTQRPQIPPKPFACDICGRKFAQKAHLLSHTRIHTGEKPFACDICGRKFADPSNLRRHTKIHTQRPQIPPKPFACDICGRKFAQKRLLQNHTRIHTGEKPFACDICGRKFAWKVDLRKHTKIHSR

B1: eGFP site 28 (12 fingers) (dsDNA)
DNA 1: TCCAGGAGCGCACCATCTTCTTCAAGGACGACGGCAACTACAAGACCC
DNA 2: GGGTCTTGTAGTTGCCGTCGTCCTTGAAGAAGATGGTGCGCTCCTGGA
As to B1, the binding signal in data set [1] is ~32 % GFP-negative cells (higher = more activity).

B2: eGFP site 30 (12 fingers) (dsDNA)
DNA 1: CAAGGGCGAGGAGCTGTTCACCGGGGTGGTGCCCATCCTGGTCGAGCT
DNA 2: AGCTCGACCAGGATGGGCACCACCCCGGTGAACAGCTCCTCGCCCTTG
With B2, in data set [2], the binding signal was ~14 % GFP-negative cells (higher = more activity).

B3: eGFP site 2 (12 fingers) (dsDNA)
DNA 1: AGTTCAGCGTGTCCGGCGAGGGCGAGGGCGATGCCACCTACGGCAAGC
DNA 2: GCTTGCCGTAGGTGGCATCGCCCTCGCCCTCGCCGGACACGCTGAACT
Regarding B3, in [3], the binding signal was ~90 % GFP-negative cells (higher = more activity).

B4: eGFP site 26 (12 fingers) (dsDNA)
DNA 1: CCGCGCCGAGGTGAAGTTCGAGGGCGACACCCTGGTGAACCGCATCGA
DNA 2: TCGATGCGGTTCACCAGGGTGTCGCCCTCGAACTTCACCTCGGCGCGG
Regarding B4, the binding signal in [4] was ~47 % GFP-negative cells (higher = more activity).

B5: eGFP site 31 (12 fingers) (dsDNA)
DNA 1: GGCAAGCTGACCCTGAAGTTCATCTGCACCACCGGCAAGCTGCCCGTG
DNA 2: CACGGGCAGCTTGCCGGTGGTGCAGATGAACTTCAGGGTCAGCTTGCC
For B5, the binding signal in data set [5] is ~72 % GFP-negative cells (higher = more activity).

B6: eGFP site 27 (12 fingers) (dsDNA)
DNA 1: TCCTGGGGCACAAGCTGGAGTACAACTACAACAGCCACAACGTCTATA
DNA 2: TATAGACGTTGTGGCTGTTGTAGTTGTACTCCAGCTTGTGCCCCAGGA
Consider B6, for which the binding signal in [6] was ~46 % GFP-negative cells (higher = more activity).

B7: eGFP site 20 (12 fingers) (dsDNA)
DNA 1: TCGAGCTGAAGGGCATCGACTTCAAGGAGGACGGCAACATCCTGGGGC
DNA 2: GCCCCAGGATGTTGCCGTCCTCCTTGAAGTCGATGCCCTTCAGCTCGA
Turning to B7, the binding signal in data set [7] is ~42 % GFP-negative cells (higher = more activity).

B8: tetO (dsDNA)
DNA 1: GTCTCTATCACTGATAGGGAGA
DNA 2: TCTCCCTATCAGTGATAGAGAC
As to B8, the binding signal in data set [8] was ~9500 mean GFP fluorescence (higher = more activity); in data set [9], ~15500 mean GFP fluorescence (higher = more activity); in data set [10] it was ~0.51 normalised eGFP fluorescence (lower = more activity, repressor); in data set [11], ~0.68 normalised eGFP fluorescence (lower = more activity, repressor).

B9: eGFP site 29 (12 fingers) (dsDNA)
DNA 1: CGGCCACAAGTTCAGCGTGTCCGGCGAGGGCGAGGGCGATGCCACCTA
DNA 2: TAGGTGGCATCGCCCTCGCCCTCGCCGGACACGCTGAACTTGTGGCCG
Consider B9, for which the binding signal in data set [12] is ~40 % GFP-negative cells (higher = more activity).

B10: eGFP site 22 (12 fingers) (dsDNA)
DNA 1: CAAGTTCAGCGTGTCCGGCGAGGGCGAGGGCGATGCCACCTACGGCAA
DNA 2: TTGCCGTAGGTGGCATCGCCCTCGCCCTCGCCGGACACGCTGAACTTG
Take B10: the binding signal in data set [13] is ~73 % GFP-negative cells (higher = more activity).

B11: eGFP site 24 (12 fingers) (dsDNA)
DNA 1: ACAACGTCTATATCATGGCCGACAAGCAGAAGAACGGCATCAAGGTGA
DNA 2: TCACCTTGATGCCGTTCTTCTGCTTGTCGGCCATGATATAGACGTTGT
Turning to B11, the binding signal in data set [14] was ~52 % GFP-negative cells (higher = more activity).

B12: eGFP site 18 (12 fingers) (dsDNA)
DNA 1: ACATGAAGCAGCACGACTTCTTCAAGTCCGCCATGCCCGAAGGCTACG
DNA 2: CGTAGCCTTCGGGCATGGCGGACTTGAAGAAGTCGTGCTGCTTCATGT
Consider B12, for which the binding signal in data set [15] was ~71 % GFP-negative cells (higher = more activity).

B13: eGFP site 1 (12 fingers) (dsDNA)
DNA 1: GAGGAGCTGTTCACCGGGGTGGTGCCCATCCTGGTCGAGCTGGACGGC
DNA 2: GCCGTCCAGCTCGACCAGGATGGGCACCACCCCGGTGAACAGCTCCTC
Consider B13, for which the binding signal in [16] is ~85 % GFP-negative cells (higher = more activity).

B14: eGFP site 25 (12 fingers) (dsDNA)
DNA 1: GCGAGGGCGAGGGCGATGCCACCTACGGCAAGCTGACCCTGAAGTTCA
DNA 2: TGAACTTCAGGGTCAGCTTGCCGTAGGTGGCATCGCCCTCGCCCTCGC
On to B14, for which, in [17], the binding signal is ~39 % GFP-negative cells (higher = more activity).

B15: eGFP site 12 (12 fingers) (dsDNA)
DNA 1: TGACCCTGAAGTTCATCTGCACCACCGGCAAGCTGCCCGTGCCCTGGC
DNA 2: GCCAGGGCACGGGCAGCTTGCCGGTGGTGCAGATGAACTTCAGGGTCA
As to B15, the binding signal in data set [18] was ~43 % GFP-negative cells (higher = more activity).

B16: eGFP site 10 (12 fingers) (dsDNA)
DNA 1: TGCCACCTACGGCAAGCTGACCCTGAAGTTCATCTGCACCACCGGCAA
DNA 2: TTGCCGGTGGTGCAGATGAACTTCAGGGTCAGCTTGCCGTAGGTGGCA
With B16, the binding signal in data set [19] is ~78 % GFP-negative cells (higher = more activity).

B17: eGFP site 23 (12 fingers) (dsDNA)
DNA 1: GGCATCGACTTCAAGGAGGACGGCAACATCCTGGGGCACAAGCTGGAG
DNA 2: CTCCAGCTTGTGCCCCAGGATGTTGCCGTCCTCCTTGAAGTCGATGCC
With B17, the binding signal in data set [20] was ~35 % GFP-negative cells (higher = more activity).
